Reference: the supplement of paper PMC9112550, “Optimization of the antimicrobial peptide Bac7 by deep mutational scanning” (BMC Biology, 2022)
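Note: peptides expressed intracellularly from a pBAD plasmid library in pooled LB shake-flask culture, induced with 0.3% L-arabinose, DNA abundance read by NGS, three biological replicates, DESeq2 with apeglm shrinkage.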

What follows are sequences tested on Escherichia coli TOP10 (assay: shrunken log2 fold change of peptide-encoding DNA abundance (4.5 h post-induction vs induction); higher = less antimicrobial activity (less host growth inhibition)). Details: time post-induction: 4.5 h; library: site-saturation at positions 5, 18, 19, 20.
RRIRKRPPRLPRPRPRPVKWPRP was tested, and the “shrunken log2 fold change” value was 0.122.
For RRIRWRPPRLPRPRPRPEMLPRP, the “shrunken log2 fold change” value was 1.17.
With RRIRARPPRLPRPRPRPSFRPRP the “shrunken log2 fold change” value was -0.262.
With RRIRWRPPRLPRPRPRPSSEPRP the “shrunken log2 fold change” value was 0.0908.
In the case of RRIRFRPPRLPRPRPRPHAHPRP, the “shrunken log2 fold change” value is reported as -0.0397.
RRIRFRPPRLPRPRPRPLPRPRP was tested, and the “shrunken log2 fold change” value was 0.669.
RRIRCRPPRLPRPRPRPGCHPRP was tested, and the “shrunken log2 fold change” value was -0.00885.
In the case of RRIRMRPPRLPRPRPRPLFFPRP, the “shrunken log2 fold change” value is reported as 0.135.
With RRIRARPPRLPRPRPRPNCQPRP the “shrunken log2 fold change” value was 0.267.
With RRIRERPPRLPRPRPRPMWGPRP the “shrunken log2 fold change” value was -0.016.
For RRIRARPPRLPRPRPRPAMLPRP, the “shrunken log2 fold change” value was 0.226.
In the case of RRIRFRPPRLPRPRPRPLHNPRP, the “shrunken log2 fold change” value is reported as -0.398.
For RRIRVRPPRLPRPRPRPHCCPRP, the “shrunken log2 fold change” value was -0.147.
In the case of RRIRLRPPRLPRPRPRPYATPRP, the “shrunken log2 fold change” value is reported as -0.246.
For RRIRIRPPRLPRPRPRPQENPRP, the “shrunken log2 fold change” value was -0.494.
For RRIRPRPPRLPRPRPRPDAEPRP, the “shrunken log2 fold change” value was 0.496.
For RRIRVRPPRLPRPRPRPAYIPRP, the “shrunken log2 fold change” value was -0.738.
RRIRTRPPRLPRPRPRPPEDPRP was tested, and the “shrunken log2 fold change” value was -0.0168.
For RRIRWRPPRLPRPRPRPWAFPRP, the “shrunken log2 fold change” value was 0.044.
For RRIRHRPPRLPRPRPRPAWRPRP, the “shrunken log2 fold change” value was 0.654.
For RRIRIRPPRLPRPRPRPKGDPRP, the “shrunken log2 fold change” value was 0.424.
For RRIRYRPPRLPRPRPRPVMRPRP, the “shrunken log2 fold change” value was 0.0461.
RRIRKRPPRLPRPRPRPGEAPRP was tested, and the “shrunken log2 fold change” value was 1.09.
For RRIRNRPPRLPRPRPRPQSYPRP, the “shrunken log2 fold change” value was 0.0549.
For RRIRERPPRLPRPRPRPQYWPRP, the “shrunken log2 fold change” value was -0.617.
With RRIRQRPPRLPRPRPRPAKTPRP the “shrunken log2 fold change” value was -0.0724.
With RRIRRRPPRLPRPRPRPNQKPRP the “shrunken log2 fold change” value was -0.128.
In the case of RRIRHRPPRLPRPRPRPLIRPRP, the “shrunken log2 fold change” value is reported as -0.217.
For RRIRKRPPRLPRPRPRPRMRPRP, the “shrunken log2 fold change” value was 1.06.
RRIRMRPPRLPRPRPRPYSGPRP was tested, and the “shrunken log2 fold change” value was -0.00278.
RRIRLRPPRLPRPRPRPTEHPRP was tested, and the “shrunken log2 fold change” value was 0.121.
For RRIRPRPPRLPRPRPRPAKVPRP, the “shrunken log2 fold change” value was 0.045.
RRIRCRPPRLPRPRPRPNWYPRP was tested, and the “shrunken log2 fold change” value was 0.09.
In the case of RRIRERPPRLPRPRPRPNQPPRP, the “shrunken log2 fold change” value is reported as 0.0495.
For RRIRNRPPRLPRPRPRPIFKPRP, the “shrunken log2 fold change” value was -0.174.
For RRIRSRPPRLPRPRPRPYCTPRP, the “shrunken log2 fold change” value was -0.256.
RRIRMRPPRLPRPRPRPQYGPRP was tested, and the “shrunken log2 fold change” value was 0.015.
RRIRHRPPRLPRPRPRPTCLPRP was tested, and the “shrunken log2 fold change” value was -0.0796.
In the case of RRIRSRPPRLPRPRPRPVLIPRP, the “shrunken log2 fold change” value is reported as -0.000674.
For RRIRHRPPRLPRPRPRPRGAPRP, the “shrunken log2 fold change” value was 0.152.
In the case of RRIRSRPPRLPRPRPRPSSGPRP, the “shrunken log2 fold change” value is reported as -0.0991.
For RRIRERPPRLPRPRPRPIIHPRP, the “shrunken log2 fold change” value was -0.413.
For RRIRMRPPRLPRPRPRPVIHPRP, the “shrunken log2 fold change” value was 0.0153.
In the case of RRIRQRPPRLPRPRPRPILIPRP, the “shrunken log2 fold change” value is reported as -0.521.
With RRIRCRPPRLPRPRPRPEKKPRP the “shrunken log2 fold change” value was 0.0741.
In the case of RRIRRRPPRLPRPRPRPRHKPRP, the “shrunken log2 fold change” value is reported as 1.89.
With RRIRHRPPRLPRPRPRPRCDPRP the “shrunken log2 fold change” value was 0.128.
For RRIRPRPPRLPRPRPRPHYTPRP, the “shrunken log2 fold change” value was -0.516.
With RRIRKRPPRLPRPRPRPHSQPRP the “shrunken log2 fold change” value was -0.142.
RRIRVRPPRLPRPRPRPIQGPRP was tested, and the “shrunken log2 fold change” value was 0.0292.
For RRIRGRPPRLPRPRPRPPQQPRP, the “shrunken log2 fold change” value was 0.825.
RRIRKRPPRLPRPRPRPSAFPRP was tested, and the “shrunken log2 fold change” value was 0.619.
With RRIRIRPPRLPRPRPRPEPSPRP the “shrunken log2 fold change” value was 3.27.
RRIRFRPPRLPRPRPRPVMQPRP was tested, and the “shrunken log2 fold change” value was -0.0242.
For RRIRMRPPRLPRPRPRPAPIPRP, the “shrunken log2 fold change” value was 0.618.
With RRIRFRPPRLPRPRPRPSMVPRP the “shrunken log2 fold change” value was -0.509.
With RRIRNRPPRLPRPRPRPSVWPRP the “shrunken log2 fold change” value was 0.228.
For RRIRYRPPRLPRPRPRPPISPRP, the “shrunken log2 fold change” value was -0.501.
With RRIRLRPPRLPRPRPRPTCDPRP the “shrunken log2 fold change” value was -0.202.
In the case of RRIRGRPPRLPRPRPRPDWKPRP, the “shrunken log2 fold change” value is reported as 0.000125.
For RRIRDRPPRLPRPRPRPLLSPRP, the “shrunken log2 fold change” value was 0.447.
With RRIRSRPPRLPRPRPRPAGAPRP the “shrunken log2 fold change” value was 0.36.
In the case of RRIRPRPPRLPRPRPRPIRDPRP, the “shrunken log2 fold change” value is reported as -0.015.
With RRIRQRPPRLPRPRPRPRCDPRP the “shrunken log2 fold change” value was -0.255.
In the case of RRIRWRPPRLPRPRPRPPTKPRP, the “shrunken log2 fold change” value is reported as 4.13.
In the case of RRIRDRPPRLPRPRPRPRDGPRP, the “shrunken log2 fold change” value is reported as 0.81.
With RRIRPRPPRLPRPRPRPLMSPRP the “shrunken log2 fold change” value was -0.443.
In the case of RRIRVRPPRLPRPRPRPECPPRP, the “shrunken log2 fold change” value is reported as 0.0319.
RRIRPRPPRLPRPRPRPKKEPRP was tested, and the “shrunken log2 fold change” value was 0.0526.
In the case of RRIRWRPPRLPRPRPRPKRFPRP, the “shrunken log2 fold change” value is reported as 0.729.
For RRIRRRPPRLPRPRPRPRDKPRP, the “shrunken log2 fold change” value was 0.126.
RRIRERPPRLPRPRPRPCQNPRP was tested, and the “shrunken log2 fold change” value was -0.0177.
RRIRPRPPRLPRPRPRPIQIPRP was tested, and the “shrunken log2 fold change” value was -0.119.
In the case of RRIRTRPPRLPRPRPRPPAGPRP, the “shrunken log2 fold change” value is reported as 0.279.
With RRIRQRPPRLPRPRPRPVYPPRP the “shrunken log2 fold change” value was -0.0407.
